{"source": "patent US20100047928A1", "about": "(CANON, published 2010)", "binders": {"B1": {"name": "fusion protein of HEL-binding scFv (HyHEL10), Au-binding peptide region and SiO2-binding peptide region (scFv)", "scFv": "DIVLTQSPATLSVTPGNSVSLSCRASQSIGNNLHWYQQKSHESPRLLIKYASQSISGIPSRFSGSGSGTDFTLSINSVETEDFGMYFCQQSNSWPYTFGGGTKLEITAGGGGSGGGGSGGGGSDIQLQESGPSLVKPSQTLSLTCSVTGDSITSDYWSWIRKFPGNRLEYMGYVSYSGSTYYNPSLKSRISITRDTSKNQYYLDLNSVTTEDTATYYCANWDGDYWGQGTLVTVSAAGGGGSGGGGSGGGGSMHGKTQATSGTIQSMHGKTQATSGTIQSMHGKTQATSGTIQSMHSASGSGGGGSGGGSGGGSEGGGSEGGGSGGGSGSIPMHVHHKHPHVIPMHVHHKHPHV", "notes": "Secreted from E. coli by the pelB signal of pET-20b(+); In the assays it stood immobilised on a gold/glass substrate; also called target substance capturing body; sc-Fv-HyHEL10 fusion; not shown: His tag used for metal chelate purification (pET-20b(+) vector)"}}, "molecular_target": "T1, Soluble hen egg-white lysozyme proteins (HEL; Seikagaku Corp. code No. 100940) (hen, UniProt P00698 19-147)", "T1 construct": "Bought protein, soluble; also called HEL proteins; target substances", "T1 sequence (P00698 19-147)": "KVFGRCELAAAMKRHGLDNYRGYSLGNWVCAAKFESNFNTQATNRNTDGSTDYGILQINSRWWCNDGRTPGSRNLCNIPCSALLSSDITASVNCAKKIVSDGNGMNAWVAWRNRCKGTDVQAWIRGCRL", "assay": "sandwich on gold/glass slide: immobilised fusion, 500 nM HEL, FITC-labelled anti-HEL polyclonal antibodies, fluorescence microscopy", "method": "200 μl of 500 nM HEL proteins is added dropwise as target substances to the neighborhood of the boundary region between the gold layer and the glass layer of the slide glass completely washed in the step (ii). The slide glass is covered with a cover glass. After reaction at room temperature for 30 minutes, the slide glass is washed with each buffer. Next, 1 ml of 100 nM FITC-labeled HEL polyclonal antibodies was spotted thereonto and incubated in a moisture chamber. Then, the slide glass is washed with each buffer. FITC fluorescence at 520 nm is observed with a fluorescence microscope.", "data": [{"binder": "B1", "values": [{"measurement": "binding result", "result": "binds"}]}]}
